Like-named read-outs stand apart in the source and are kept apart here.
Tests used:
angiotensin AT1 receptor [1] = target: angiotensin AT1 receptor (UniProt P30556); assay: genetically encoded conformation-sensitive fluorescent biosensor
angiotensin AT1 receptor [2] = target: angiotensin AT1 receptor (UniProt P30556); assay: as above; remark: listed apart in the source

Chain of UniProt P30556 (P30556 whole entry): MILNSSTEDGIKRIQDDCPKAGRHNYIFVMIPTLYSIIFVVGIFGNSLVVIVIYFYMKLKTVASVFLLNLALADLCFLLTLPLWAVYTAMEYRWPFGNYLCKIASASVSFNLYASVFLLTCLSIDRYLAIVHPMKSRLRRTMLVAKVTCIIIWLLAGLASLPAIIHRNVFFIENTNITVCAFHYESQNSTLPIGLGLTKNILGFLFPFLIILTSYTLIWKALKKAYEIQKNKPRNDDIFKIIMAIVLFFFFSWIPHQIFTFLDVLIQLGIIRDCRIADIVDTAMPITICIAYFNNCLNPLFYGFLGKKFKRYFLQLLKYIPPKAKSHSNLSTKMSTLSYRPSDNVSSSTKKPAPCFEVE

t1/2 of arrestin recruitment (0.693/kobs) with 32 uM AngII (angiotensin AT1 receptor [1]): 44 s
t1/2 of arrestin recruitment (0.693/kobs) with 32 uM AngII (angiotensin AT1 receptor [2]): 45 s
t1/2 of arrestin recruitment (0.693/kobs) with 32 uM SII (angiotensin AT1 receptor [2]): 84
Substance: β-arrestin2 sensor (β-arrestin2 inserted into the seventh stave of mNeonGreen) (from UniProt P32121 1-409)

— publication doi:10.1101/772293
